{
  "source": "paper PMC8099430",
  "about": "“CM1-driven assembly and activation of yeast γ-tubulin small complex underlies microtubule nucleation” (eLife, 2021)",
  "molecules": {"B1": {"name": "Spc110p^1-220 (domain or fragment, S. cerevisiae, UniProt P32380 1-220, looked up)", "chain": "MDEASHLPNGSLKNMEFTPVGFIKSKRNTTQTQVVSPTKVPNANNGDENEGPVKKRQRRSIDDTIDSTRLFSEASQFDDSFPEIKANIPPSPRSGNVDKSRKRNLIDDLKKDVPMSQPLKEQEVREHQMKKERFDRALESKLLGKRHITYANSDISNKELYINEIKSLKHEIKELRKEKNDTLNNYDTLEEETDDLKNRLQALEKELDAKNKIVNSRKVD", "notes": "also called Spc110^1-220; N-terminal domain of Spc110p; source: pFastBac-GST-Spc110p^1-220 construct; purified in filaments with γTuSC, prepared essentially as described (Kollman et al., 2010; Kollman et al., 2015)"}, "B2": {"name": "Spc97p (natural protein, S. cerevisiae)", "chain": "MEIKEVDDRAELLRYTNNIPLLGKLVNHQPLWSTNPKLKSFSLEKISAPDQRRVQEALVVKDLLNVLIGLEGTYIRYFNDYEPSDPETPIEFKIAKKMDPSFKTFSRRIVRYGKQYMILTRAYEKWSDTSFGMVLQRFAYEIRRFLEDVYLKTLVERLERDFNKVPNFSIRELEQIINETEVNKQMELLYNIYEEIFREIEERRTNQSSQEDFNNFMDSMKNESSLHLRLMVAFDTTVYPVPKGGAILKIFQQKILENLGDRSSVMFLKKLLNNISQDYCTMLYEWLTQGILNDPYQEFMTYDDLEGKTDNIFDTRDRAWDTQYFIRKDVLLRDCDSEEDKNLLFKMLRTGILLKVVRASLQIPTIPSNSSDITIQEINDFADLMEGSNLELYVDKCYSRANEIFLKLFFQGYDLINVLKHLQQIFLGYQSGHNVLKFLTKNMGELTKHYRNDNNANYDKLLQNFELERQSENPNNLMRQLLMIQFDTETLPQVLSHYLQIYPEVPENNSANDDSDPLMHANNFKNMNAILFDELSKERTGAYHGSNLELYTPKSAIYHLKFDINIPYPLNIIISRTCMIKYQIILRYQLVLQYHSRLLDETWMDLNKTPSWKYRGYSHTVKRRIVRATRVLHAKMNHFIKTIMEYFNQNVIDKEVYSLEKCYRNPTLAVAIQNELEGGLTNIMTNRCLSDLIPLQLQIFDIVYKFCKFIKSMRAKLCQLDPVLYEKHKSGMMKTLNEGYRTNNGGQEDVGYQEDAALELIQKLIEYISNASSIFRKCLINFTQELSTEKFDFYDSSSVDAAGIERVLYSIVPPRSASASSQR", "notes": "Spc97p, S. cerevisiae homologue of GCP2; the 712 a.a. built in the model are said to be 87% of the protein; also called GCP2 homologue; source: pFastBac-Spc97p construct; purified as part of γTuSC, prepared essentially as described (Vinh et al., 2002; Lyon et al., 2016)"}, "B3": {"name": "γ-tubulin (Tub4p) (natural protein, S. cerevisiae)", "chain": "MGGEIITLQAGQCGNHVGKFLWSQLAKEHAIGTDGLSQLPDSSTERDDDTKPFFRENSRNKFTPRAIMMDSEPSVIADVENTFRGFFDPRNTWVASDGASAGNSWANGYDIGTRNQDDILNKIDKEIDSTDNFEGFQLLHSVAGGTGSGLGSNLLEALCDRYPKKILTTYSVFPARSSEVVVQSYNTILALRRLIEDSDATVVFDNASLLNISGKVFRNPNIDLQHTNQLISTIISSVTNSIRFPSYMYSSMSSIYSTLIPSPELHFLSPSFTPFTSDYIHDDIAHKGHSSYDVMLDLLDPSNSLVSTAMNNPTYFNVYNTIIGNVEPRQISRAMTKLQQRIKFPSWSSSAMHVNIGRRSPYLPLQPNENEVSGMMLSNMSTVVNVFENACNTFDKVFAKGAFLNNYNVGDLFQSMQNVQDEFAESREVVQSLMEDYVAAEQDSYLDDVLVDDENMVGELEEDLDADGDHKLV", "notes": "Tub4p, S. cerevisiae γ-tubulin; the 453 a.a. built in the model are said to be 96% of the protein; source: pFastBac-Tub4p construct; purified as part of γTuSC, prepared essentially as described (Vinh et al., 2002; Lyon et al., 2016)"}, "B4": {"name": "Tub4p S58C/G288C (natural protein, S. cerevisiae)", "chain": "B3 chain with S58C, G288C", "modifications": "engineered cysteines oxidised to disulfides (overnight dialysis into 1 mM oxidized glutathione)", "notes": "Tub4p, S. cerevisiae γ-tubulin, with S58C and G288C; also called γ-tubulin engineered with disulfides; γ-tubulin of γTuSC^SS / γTuRC^SS; source: pFastBac-Tub4p^S58C/G288C construct (Kollman et al., 2015); purified in filaments prepared essentially as described (Kollman et al., 2010; Kollman et al., 2015)"}, "B5": {"name": "Spc110p^1-401-GST (domain or fragment, S. cerevisiae, UniProt P32380 1-401, looked up)", "chain": "MDEASHLPNGSLKNMEFTPVGFIKSKRNTTQTQVVSPTKVPNANNGDENEGPVKKRQRRSIDDTIDSTRLFSEASQFDDSFPEIKANIPPSPRSGNVDKSRKRNLIDDLKKDVPMSQPLKEQEVREHQMKKERFDRALESKLLGKRHITYANSDISNKELYINEIKSLKHEIKELRKEKNDTLNNYDTLEEETDDLKNRLQALEKELDAKNKIVNSRKVDDHSGCIEEREQMERKLAELERKLKTVKDQVLELENNSDVQSLKLRSKEDELKNLMNELNELKSNAEEKDTQLEFKKNELRKRTNELNELKIKSDEMDLQLKQKQNESKRLKDELNELETKFSENGSQSSAKENELKMLKNKIAELEEEISTKNSQLIAKEGKLASLMAQLTQLESKLNQRD", "notes": "Spc110p, S. cerevisiae, residues 1-401; also called Spc110^1-401-GST; Spc110^1-401; not shown: GST, C-terminal, kept"}},
  "key": {"[1]": {"biological_target": "γTuSC (Saccharomyces cerevisiae) (UniProt P53378)", "details": "cited from earlier work"}, "[2]": {"biological_target": "the molecule itself", "test": "cryo-EM structure; γTuRC^WT helical filaments of γTuSC with Spc110p^1-220 (open and closed classes); 40 mM HEPES pH 7.5, 2 mM MgCl2, 1 mM EGTA, 1 mM GDP, 100 mM KCl, 1 mM DTT, 2.5% glycerol"}, "Spc97p [3]": {"biological_target": "B2", "test": "cryo-EM structure; γTuRC^SS helical filaments (disulfide-trapped closed state) of γTuSC^SS with Spc110p^1-220; 40 mM HEPES pH 7.5, 2 mM MgCl2, 1 mM EGTA, 0.5 mM GTP, 100 mM KCl, 1 mM oxidized glutathione, 2.5% glycerol", "details": "both partners purified"}, "Spc98p [4]": {"biological_target": "T1, Spc98p (S. cerevisiae, UniProt P53540 1-846)", "T1 construct": "Spc98p, S. cerevisiae homologue of GCP3; the 674 a.a. built in the model are said to be 80% of the protein; also called GCP3 homologue; source: pFastBac-Spc98p construct; purified as part of γTuSC, prepared essentially as described (Vinh et al., 2002; Lyon et al., 2016)", "T1 sequence": "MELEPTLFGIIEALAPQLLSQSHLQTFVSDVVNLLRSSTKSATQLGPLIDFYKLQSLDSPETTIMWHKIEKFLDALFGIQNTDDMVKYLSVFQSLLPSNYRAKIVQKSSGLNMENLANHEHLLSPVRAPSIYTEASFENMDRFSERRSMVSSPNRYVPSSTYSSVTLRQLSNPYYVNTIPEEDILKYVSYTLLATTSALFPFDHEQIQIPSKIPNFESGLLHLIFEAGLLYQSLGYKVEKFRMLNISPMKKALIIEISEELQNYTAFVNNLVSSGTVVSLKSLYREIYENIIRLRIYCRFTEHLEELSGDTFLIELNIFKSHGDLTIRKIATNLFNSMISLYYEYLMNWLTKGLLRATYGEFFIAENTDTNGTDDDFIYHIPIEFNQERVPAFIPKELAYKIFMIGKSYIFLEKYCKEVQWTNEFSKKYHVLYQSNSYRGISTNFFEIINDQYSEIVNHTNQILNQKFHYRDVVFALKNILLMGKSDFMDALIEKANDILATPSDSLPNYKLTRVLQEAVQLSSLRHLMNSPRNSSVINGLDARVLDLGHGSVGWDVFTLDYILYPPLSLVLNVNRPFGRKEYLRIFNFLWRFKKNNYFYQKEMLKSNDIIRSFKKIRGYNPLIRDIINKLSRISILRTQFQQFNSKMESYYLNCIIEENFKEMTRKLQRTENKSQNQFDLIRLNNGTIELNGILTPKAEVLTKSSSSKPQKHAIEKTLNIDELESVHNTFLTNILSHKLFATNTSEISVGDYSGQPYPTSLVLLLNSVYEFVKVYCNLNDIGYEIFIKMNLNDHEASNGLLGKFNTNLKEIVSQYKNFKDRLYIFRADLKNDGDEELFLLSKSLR", "test": "cryo-EM structure; γTuRC^SS helical filaments (disulfide-trapped closed state) of γTuSC^SS with Spc110p^1-220; 40 mM HEPES pH 7.5, 2 mM MgCl2, 1 mM EGTA, 0.5 mM GTP, 100 mM KCl, 1 mM oxidized glutathione, 2.5% glycerol", "details": "both partners purified"}, "Spc98p [5]": {"biological_target": "T1, Spc98p", "test": "cryo-EM structure; γTuRC^WT helical filaments of γTuSC with Spc110p^1-220 (open and closed classes); 40 mM HEPES pH 7.5, 2 mM MgCl2, 1 mM EGTA, 1 mM GDP, 100 mM KCl, 1 mM DTT, 2.5% glycerol", "details": "both partners purified"}, "Spc97p [6]": {"biological_target": "B2", "test": "cryo-EM structure; γTuRC^WT helical filaments of γTuSC with Spc110p^1-220 (open and closed classes); 40 mM HEPES pH 7.5, 2 mM MgCl2, 1 mM EGTA, 1 mM GDP, 100 mM KCl, 1 mM DTT, 2.5% glycerol", "details": "both partners purified"}, "Spc97p [7]": {"biological_target": "B2", "test": "cross-linking; XL-MS; DSS (0.44 mM, 3 min, RT) or EDC (5.4 mM plus 2.7 mM Sulfo-NHS, 30 min, RT); 0.4 µM γTuSC and 0.8 µM Spc110; 40 mM HEPES pH 7.0, 150 mM KCl", "details": "both partners purified"}},
  "note": "Where a chain is given by its changes, count along the chain named. Names may count otherwise.",
  "data": [
    {"molecule": "γTuSC (from UniProt P53378)", "values": [
      {"measurement": "Kd", "setting": "[1]", "value": 2000, "unit": "nM"}
    ]},
    {"molecule": "B1", "values": [
      {"measurement": "binding result", "setting": "[2]", "value": "binds"},
      {"measurement": "binding result", "setting": "Spc97p [3]", "value": "binds"},
      {"measurement": "binding result", "setting": "Spc98p [4]", "value": "binds"}
    ]},
    {"molecule": "B2", "values": [
      {"measurement": "binding result", "setting": "Spc98p [5]", "value": "binds"}
    ]},
    {"molecule": "B3", "values": [
      {"measurement": "binding result", "setting": "Spc97p [6]", "value": "binds"},
      {"measurement": "binding result", "setting": "Spc98p [5]", "value": "binds"}
    ]},
    {"molecule": "B4", "values": [
      {"measurement": "binding result", "setting": "Spc97p [3]", "value": "binds"},
      {"measurement": "binding result", "setting": "Spc98p [4]", "value": "binds"}
    ]},
    {"molecule": "B5", "values": [
      {"measurement": "binding result", "setting": "Spc97p [7]", "value": "binds"}
    ]}
  ]
}
